Measurements as given in US20240059799A1 (Pfizer, published 2024).

Target: T1, recombinant human TL1A (human, UniProt O95150 71-251)
T1 construct: The ELISA method says only 'recombinant TL1A' coated on plates; homotrimeric cytokine; also called TNFSF15; recombinant TL1A
T1 chain: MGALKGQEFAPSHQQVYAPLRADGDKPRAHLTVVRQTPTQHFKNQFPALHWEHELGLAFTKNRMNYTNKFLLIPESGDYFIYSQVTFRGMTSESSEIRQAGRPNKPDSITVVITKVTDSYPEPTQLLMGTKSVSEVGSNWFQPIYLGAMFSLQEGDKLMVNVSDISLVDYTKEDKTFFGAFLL
Assay: competition ELISA on coated recombinant TL1A; competitor biotinylated TL1A-0002
Procedure: For this competition ELISA assay procedure, 96-well high binding plates (Corning, product number 3590) were coated with 1 μg/mL recombinant TL1A in 100 μL/well in Phospate Buffered Saline (PBS) overnight at 4° C. Plates were then blocked in PBS+0.02% casein solution and washed with PBS+0.05% Tween-20 following standard ELISA protocol. […] Plates were washed with PBS+0.05% Tween-20 following standard ELISA protocol, and Streptavidin-HRP (Southern Biotech, product number 7100-05) diluted to 1:10,000 in assay buffer was added to plates and incubated for 25-30 minutes at room temperature. Next, the plates were washed with PBS+0.05% Tween-20 following standard ELISA protocol, and then TMB substrate (BioFX Laboratories, catalog number TMBW-0100-01) was added to plates. Reactions were stopped after approximately 5 minutes by adding 0.18 M ortho-phosphoric acid to each well and absorbance was read at 450 nm.

B1: TL1A-0296 (antibody, V domains shown)
VH: QVQLVQSGAEVKKPGASVKVSCKASGYDFTYYGVSWVRQAPGQGLEWMGWISTYGGNTHYAPSLQGRVTMTTDTSTSTAYMELRSLRSDDTAVYYCARESYYGSGAFRGGMDVWGQGTTVTVSS
VL: DIQMTQSPSSLSASVGDRVTITCRASQSVSSYLAWYQQKPGKAPKLLIYDASNRATGVPSRFSGSGSGTDFTLTISSLQPEDFATYYCQQRSNWPWTFGQGTKVEIKR
notes: IgG1 effector-minimized/kappa
B1 was tested, and the “Bioactivity relative to TL1A-0002” value was 17.3 fold and the IC50 was 87.3 nM.

B2: TL1A-0297 (antibody, V domains shown)
VH: QVQLVQSGAEVKKPGASVKVSCKASGYDFTYYGVSWVRQAPGQGLEWMGWISTYGGNTHYAPSLQGRVTMTTDTSTSTAYMELRSLRSDDTAVYYCARESYYGSGAHRGGMDVWGQGTTVTVSS
VL: DIQMTQSPSSLSASVGDRVTITCRASQSVSSYLAWYQQKPGKAPKLLIYDASNRATGVPSRFSGSGSGTDFTLTISSLQPEDFATYYCQQRSNWPWTFGQGTKVEIKR
notes: IgG1 effector-minimized/kappa
B2 was tested, and the “Bioactivity relative to TL1A-0002” value was 14.5 fold and the IC50 was 73.1 nM.

B3: TL1A-0298 (antibody, V domains shown)
VH: QVQLVQSGAEVKKPGASVKVSCKASGYDFTYYGIGWVRQAPGQGLEWMGWISTYNDNTHYAPSLQGRVTMTTDTSTSTAYMELRSLRSDDTAVYYCARESYYGSGAFRGGMDVWGQGTTVTVSS
VL: DIQMTQSPSSLSASVGDRVTITCRASQSVSSYLAWYQQKPGKAPKLLIYDASNRATGVPSRFSGSGSGTDFTLTISSLQPEDFATYYCQQRSNWPWTFGQGTKVEIKR
notes: IgG1 effector-minimized/kappa
For B3, the “Bioactivity relative to TL1A-0002” value was 5 fold and the IC50 was 25.3 nM.

B4: TL1A-0299 (antibody, V domains shown)
VH: QVQLVQSGAEVKKPGASVKVSCKASGYDFTYYGIGWVRQAPGQGLEWMGWISTYNDNTHYAPSLQGRVTMTTDTSTSTAYMELRSLRSDDTAVYYCARESYYGSGAHRGGMDVWGQGTTVTVSS
VL: DIQMTQSPSSLSASVGDRVTITCRASQSVSSYLAWYQQKPGKAPKLLIYDASNRATGVPSRFSGSGSGTDFTLTISSLQPEDFATYYCQQRSNWPWTFGQGTKVEIKR
notes: IgG1 effector-minimized/kappa
B4 was tested, and the “Bioactivity relative to TL1A-0002” value was 4.5 fold and the IC50 was 22.9 nM.

B5: TL1A-0300 (antibody, V domains shown)
VH: QVQLVQSGAEVKKPGASVKVSCKASGYDFTYYGIGWVRQAPGQGLEWMGWISTYNDNTHYAQKLQGRVTMTTDTSTSTAYMELRSLRSDDTAVYYCARESYYGSGAFRGGMDVWGQGTTVTVSS
VL: DIQMTQSPSSLSASVGDRVTITCRASQSVSSYLAWYQQKPGKAPKLLIYDASNRATGVPSRFSGSGSGTDFTLTISSLQPEDFATYYCQQRSNWPWTFGQGTKVEIKR
notes: IgG1 effector-minimized/kappa
For B5, the “Bioactivity relative to TL1A-0002” value was 4.7 fold and the IC50 was 23.8 nM.

B6: TL1A-0301 (antibody, V domains shown)
VH: QVQLVQSGAEVKKPGASVKVSCKASGYDFTYYGIGWVRQAPGQGLEWMGWISTYNDNTHYAQKLQGRVTMTTDTSTSTAYMELRSLRSDDTAVYYCARESYYGSGAHRGGMDVWGQGTTVTVSS
VL: DIQMTQSPSSLSASVGDRVTITCRASQSVSSYLAWYQQKPGKAPKLLIYDASNRATGVPSRFSGSGSGTDFTLTISSLQPEDFATYYCQQRSNWPWTFGQGTKVEIKR
notes: IgG1 effector-minimized/kappa
In the case of B6, the “Bioactivity relative to TL1A-0002” value is reported as 4.9 fold and the IC50 is reported as 24.7 nM.

B7: TL1A-0302 (antibody, V domains shown)
VH: QVQLVQSGAEVKKPGASVKVSCKASGYDFTYYGIGWVRQAPGQGLEWMGWISTYNTGTHYAPSLQGRVTMTTDTSTSTAYMELRSLRSDDTAVYYCARESYYGSGAFRGGMDVWGQGTTVTVSS
VL: DIQMTQSPSSLSASVGDRVTITCRASQSVSSYLAWYQQKPGKAPKLLIYDASNRATGVPSRFSGSGSGTDFTLTISSLQPEDFATYYCQQRSNWPWTFGQGTKVEIKR
notes: IgG1 effector-minimized/kappa
B7 was tested, and the “Bioactivity relative to TL1A-0002” value was 4 fold and the IC50 was 20.4 nM.

B8: TL1A-0303 (antibody, human IgG1, kappa, V domains shown)
VH: QVQLVQSGAEVKKPGASVKVSCKASGYDFTYYGIGWVRQAPGQGLEWMGWISTYNTGTHYAPSLQGRVTMTTDTSTSTAYMELRSLRSDDTAVYYCARESYYGSGAHRGGMDVWGQGTTVTVSS
VL: DIQMTQSPSSLSASVGDRVTITCRASQSVSSYLAWYQQKPGKAPKLLIYDASNRATGVPSRFSGSGSGTDFTLTISSLQPEDFATYYCQQRSNWPWTFGQGTKVEIKR
notes: human IgG1 effector-function-minimized / human kappa
B8 was tested, and the “Bioactivity relative to TL1A-0002” value was 3 fold and the IC50 was 15 nM.

B9: TL1A-0304 (antibody, human IgG1, kappa, V domains shown)
VH: QVQLVQSGAEVKKPGASVKVSCKASGYDFTYYGIGWVRQAPGQGLEWMGWISTYNTGTHYAQKLQGRVTMTTDTSTSTAYMELRSLRSDDTAVYYCARESYYGSGAFRGGMDVWGQGTTVTVSS
VL: DIQMTQSPSSLSASVGDRVTITCRASQSVSSYLAWYQQKPGKAPKLLIYDASNRATGVPSRFSGSGSGTDFTLTISSLQPEDFATYYCQQRSNWPWTFGQGTKVEIKR
notes: as for B8
In the case of B9, the “Bioactivity relative to TL1A-0002” value is reported as 3 fold and the IC50 is reported as 14.9 nM.

B10: TL1A-0305 (antibody, human IgG1, kappa, V domains shown)
VH: QVQLVQSGAEVKKPGASVKVSCKASGYDFTYYGIGWVRQAPGQGLEWMGWISTYNTGTHYAQKLQGRVTMTTDTSTSTAYMELRSLRSDDTAVYYCARESYYGSGAHRGGMDVWGQGTTVTVSS
VL: DIQMTQSPSSLSASVGDRVTITCRASQSVSSYLAWYQQKPGKAPKLLIYDASNRATGVPSRFSGSGSGTDFTLTISSLQPEDFATYYCQQRSNWPWTFGQGTKVEIKR
notes: as for B8
With B10 the “Bioactivity relative to TL1A-0002” value was 2.9 fold and the IC50 was 14.5 nM.

B11: TL1A-0306 (antibody, human IgG1, kappa, V domains shown)
VH: QVQLVQSGAEVKKPGASVKVSCKASGYDFTYYGIGWVRQAPGQGLEWMGWISTYNTVTHYAPSLQGRVTMTTDTSTSTAYMELRSLRSDDTAVYYCARESYYGSGAFRGGMDVWGQGTTVTVSS
VL: DIQMTQSPSSLSASVGDRVTITCRASQSVSSYLAWYQQKPGKAPKLLIYDASNRATGVPSRFSGSGSGTDFTLTISSLQPEDFATYYCQQRSNWPWTFGQGTKVEIKR
notes: as for B8
B11 was tested, and the “Bioactivity relative to TL1A-0002” value was 3.1 fold and the IC50 was 15.8 nM.

B12: TL1A-0307 (antibody, human IgG1, kappa, V domains shown)
VH: QVQLVQSGAEVKKPGASVKVSCKASGYDFTYYGIGWVRQAPGQGLEWMGWISTYNTVTHYAPSLQGRVTMTTDTSTSTAYMELRSLRSDDTAVYYCARESYYGSGAHRGGMDVWGQGTTVTVSS
VL: DIQMTQSPSSLSASVGDRVTITCRASQSVSSYLAWYQQKPGKAPKLLIYDASNRATGVPSRFSGSGSGTDFTLTISSLQPEDFATYYCQQRSNWPWTFGQGTKVEIKR
notes: as for B8
B12 was tested, and the “Bioactivity relative to TL1A-0002” value was 3.4 fold and the IC50 was 17.2 nM.

B13: TL1A-0308 (antibody, human IgG1, kappa, V domains shown)
VH: QVQLVQSGAEVKKPGASVKVSCKASGYDFTYYGIGWVRQAPGQGLEWMGWISTYNTNTHYAPSLQGRVTMTTDTSTSTAYMELRSLRSDDTAVYYCARESYYGSGAFRGGMDVWGQGTTVTVSS
VL: DIQMTQSPSSLSASVGDRVTITCRASQSVSSYLAWYQQKPGKAPKLLIYDASNRATGVPSRFSGSGSGTDFTLTISSLQPEDFATYYCQQRSNWPWTFGQGTKVEIKR
notes: as for B8
In the case of B13, the “Bioactivity relative to TL1A-0002” value is reported as 2.8 fold and the IC50 is reported as 14.2 nM.

B14: TL1A-0309 (antibody, human IgG1, kappa, V domains shown)
VH: QVQLVQSGAEVKKPGASVKVSCKASGYDFTYYGIGWVRQAPGQGLEWMGWISTYNTNTHYAPSLQGRVTMTTDTSTSTAYMELRSLRSDDTAVYYCARESYYGSGAHRGGMDVWGQGTTVTVSS
VL: DIQMTQSPSSLSASVGDRVTITCRASQSVSSYLAWYQQKPGKAPKLLIYDASNRATGVPSRFSGSGSGTDFTLTISSLQPEDFATYYCQQRSNWPWTFGQGTKVEIKR
notes: as for B8
With B14 the “Bioactivity relative to TL1A-0002” value was 3.3 fold and the IC50 was 16.8 nM.

B15: TL1A-0310 (antibody, V domains shown)
VH: QVQLVQSGAEVKKPGASVKVSCKASGYDFTYYGIGWVRQAPGQGLEWMGWISTYGGNTHYAPSLQGRVTMTTDTSTSTAYMELRSLRSDDTAVYYCARESYYGSGAFRGGMDVWGQGTTVTVSS
VL: DIQMTQSPSSLSASVGDRVTITCRASQSVSSYLAWYQQKPGKAPKLLIYDASNRATGVPSRFSGSGSGTDFTLTISSLQPEDFATYYCQQRSNWPWTFGQGTKVEIKR
notes: IgG1 effector-minimized/kappa
In the case of B15, the “Bioactivity relative to TL1A-0002” value is reported as 14.8 fold and the IC50 is reported as 74.7 nM.

B16: TL1A-0311 (antibody, V domains shown)
VH: QVQLVQSGAEVKKPGASVKVSCKASGYDFTYYGIGWVRQAPGQGLEWMGWISTYGGNTHYAPSLQGRVTMTTDTSTSTAYMELRSLRSDDTAVYYCARESYYGSGAHRGGMDVWGQGTTVTVSS
VL: DIQMTQSPSSLSASVGDRVTITCRASQSVSSYLAWYQQKPGKAPKLLIYDASNRATGVPSRFSGSGSGTDFTLTISSLQPEDFATYYCQQRSNWPWTFGQGTKVEIKR
notes: IgG1 effector-minimized/kappa
In the case of B16, the “Bioactivity relative to TL1A-0002” value is reported as 6 fold and the IC50 is reported as 30.2 nM.

B17: TL1A-0324 (antibody, human IgG1, kappa, V domains shown)
VH: QVQLVQSGAEVKKPGASVKVSCKASGYDFTYYGISWVRQAPGQGLEWMGWISTYNTNTHYARMLQGRVTMTTDTSTSTAYMELRSLRSDDTAVYYCARESYYGSGAYRGGMDVWGQGTTVTVSS
VL: DIQMTQSPSSLSASVGDRVTITCRASQSVSSYLAWYQQKPGKAPKLLIYDASNRATGVPSRFSGSGSGTDFTLTISSLQPEDFATYYCQQRSNWPWTFGQGTKVEIKR
notes: as for B8
With B17 the “Bioactivity relative to TL1A-0002” value was 1.2 fold and the IC50 was 6.1 nM.

B18: TL1A-0291 (antibody, human IgG1, kappa, V domains shown)
VH: QVQLVQSGAEVKKPGASVKVSCKASGYDFTYYGVSWVRQAPGQGLEWMGWISTYNTGTHYAQKLQGRVTMTTDTSTSTAYMELRSLRSDDTAVYYCARESYYGSGAHRGGMDVWGQGTTVTVSS
VL: DIQMTQSPSSLSASVGDRVTITCRASQSVSSYLAWYQQKPGKAPKLLIYDASNRATGVPSRFSGSGSGTDFTLTISSLQPEDFATYYCQQRSNWPWTFGQGTKVEIKR
notes: as for B8
In the case of B18, the “Bioactivity relative to TL1A-0002” value is reported as 1.8 fold and the IC50 is reported as 9 nM.
